The nature of series [1]: binding to lysine-SEPHAROSE 4B column, elution with ε-ACA gradient. The protocol:
FIG. 7 is a chromatogram showing binding of (TAL6003)-plasminogen to lysine-SEPHAROSE™ 4B: 0.5 mg of purified (TAL6003)-plasminogen was applied on the lysine-SEPHAROSE™ 4B column (1×3 cm) equilibrated with Tris-buffered saline, pH 7.4. Bound protein was eluted from the column by a 0-20 mM gradient of ε-aminocaproic acid (ε-ACA) as a single peak. The absorbance at 280 nm and the concentration of ε-ACA, as a function of the effluent volume are presented on the graph.
To confirm the functionality of kringle 1, we determined the binding of TAL6003-plasminogen to lysine-SEPHAROSE™ 4B.

The nature of series [2]: binding of ε-ACA measured by changes in protein fluorescence. The settings on record: 50 mM Tris, 20 mM NaCl, pH 8.0, 25° C.; 0-50 μM ε-ACA. The protocol: To further confirm the functionality of kringle 1, the binding of ε-ACA to (TAL6003)-plasminogen was measured by monitoring the associated changes in protein fluorescence as described by Matsuka et al., Eur. J. Biochem. 190: 93-97 (1990) and Douglas et al., J. Biochemistry 41: 3302-3310 (2002), all incorporated herein by reference. Binding of ε-ACA to kringle 1 of (TAL6003)-plasminogen results in a decrease in fluorescence, likely due to quenching of the tryptophan residues which are part of the lysine-binding site.
To monitor this process, 4 μL to 16 μL aliquots of a concentrated solution of ε-ACA were added to 2 mL of 5 μM (TAL6003)-plasminogen in 50 mM Tris buffer containing 20 mM NaCl, pH 8.0, 25° C. The fluorescence was monitored at an excitation wavelength of 298 nm and an emission wavelength of 340 nm in a FLUOROMAX fluorescence spectrophotometer (Jobin Yvon, Inc., Edison, N.J.); after each addition of ε-ACA, the solution was allowed to equilibrate until no further changes in fluorescence were observed.
The resulting fluorescence values were corrected for dilution and plotted versus the concentration of ε-ACA over a range of 0-50 μM ε-ACA.

A further series deals with fibrin. The series can be described thus: fibrin binding microtiter plate assay (activation by tPA and resulting clot lysis). Here is the method: One property of plasminogen is its ability to bind fibrin. In order to determine whether (TAL6003)-plasminogen retains the ability to interact with fibrin, its fibrin-binding properties was tested in a microtiter plate assay in which binding of (TAL6003)-plasminogen to fibrin was assessed by its subsequent activation by tPA and resulting clot lysis. For this purpose, 100 μL of 5 mg/mL fibrinogen was polymerized with thrombin in each well of a microtiter plate. Various concentrations of (TAL6003)-plasminogen was added on top of the fibrin clots and incubated for 1 hour at 37° C. The plate was washed extensively with PBS while the fibrin clots are still intact and attached to the wells. After washing, a 0.1 mg/mL solution of tPA was added to each well and the plate was incubated 2 hours at 37° C. As a result, some of the clots were completely dissolved and some were partially dissolved, while wells with very low amounts of (TAL6003)-plasminogen and control wells remained practically intact. The degree of fibrinolysis was monitored by measuring the 280 nm absorbance of remainders of the initial clots reconstituted in 1 M NaOH. The absorbance values were plotted as a function of (TAL6003)-plasminogen concentration.

Series [3] can be described thus: amidolytic activity with plasmin substrate S-2251, steady-state kinetics. The format is biochemical. To be noted: substrate S-2251, PBS buffer, pH 7.4, 25° C.; for kcat: for (TAL6003)-plasmin corrected for percent active sites. The protocol:
The amidolytic activity of (TAL6003)-plasmin was examined using the plasmin substrate D-Val-Leu-Lys-p-nitroanilide (S-2251) (DiaPharma, West Chester, Ohio).
(§1) Correcting kcat for percent active sites, a kcat of about 725 min^−1 was determined. This value was very close to the value determined in the same assay for full-length plasmin, 820±23 min^−1 and for micro-plasmin (lacking all five kringles), 795±24 min^−1.

Series [4] in a line: pNPGB active site titration. Type of series: biochemical. The protocol: as §1
For series [5], the target named is T1, α2-antiplasmin (Homo sapiens, UniProt P08697).
T1 sequence (P08697 40-491): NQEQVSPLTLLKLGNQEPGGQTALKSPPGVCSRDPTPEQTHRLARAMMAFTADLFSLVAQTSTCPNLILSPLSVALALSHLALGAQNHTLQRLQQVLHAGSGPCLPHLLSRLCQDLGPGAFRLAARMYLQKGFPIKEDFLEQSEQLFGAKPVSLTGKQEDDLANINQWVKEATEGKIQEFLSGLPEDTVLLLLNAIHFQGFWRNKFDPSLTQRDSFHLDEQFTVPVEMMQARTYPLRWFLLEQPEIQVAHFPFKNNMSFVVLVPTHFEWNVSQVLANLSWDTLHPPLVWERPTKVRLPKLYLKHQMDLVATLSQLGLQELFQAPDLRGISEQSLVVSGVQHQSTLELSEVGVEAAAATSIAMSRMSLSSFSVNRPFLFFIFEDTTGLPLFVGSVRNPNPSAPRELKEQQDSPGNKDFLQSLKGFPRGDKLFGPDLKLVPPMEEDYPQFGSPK
The series can be described thus: rate of inhibition by α2-antiplasmin (method of Wiman and Collen, S-2251 activity at time points). The format is biochemical. The settings on record: 22° C. in PBS buffer, pH 7.4. The protocol: The rate of inhibition of (TAL6003)-plasmin by α2-antiplasmin was determined to be 1.8±0.06×10^7 M^−1 s^−1 using the method of Wiman and Collen (Wiman, B. and D. Collen, Eur. J. Biochem. 84: 573-578 (1978)) in which plasmin and α2-antiplasmin are mixed then assayed for S-2251 activity at specific time points (Table 3).
Literature values are taken from Anonick, et al., Thrombosis Res. 59: 449 (1990). All rates were measured according to the methods published in Anonick, et al.

Series [6] is described as follows: stability and formulation pH. Type of series: physicochemical. The text has this:
As shown previously for plasmin by Novokhatny et al., J. Thromb. Haemost. […] When mixed with plasma or neutral pH buffers, (TAL6003)-plasmin is quickly re-activated.

The nature of series [7]: amidolytic activity with plasmin substrate S-2251, steady-state kinetics. The settings on record: S-2251, PBS, pH 7.4, 25° C.; before correction for percent active sites. Type of series: biochemical.
Series [8] concerns the target T1, α2-antiplasmin. The settings on record: from Anonick et al., cited from earlier work.

The values below come from patent publication US20120093799A1, “RECOMBINANTLY MODIFIED PLASMIN” (priority 2007, published 2012).

“And” between values parts separate entries of the source, which are not always exact repeats. Equal entries are not always repeated.

B1: (TAL6003)-plasminogen: recombinant plasminogen deletion mutant, single kringle plus serine protease domain, amino acid sequence SEQ ID NO: 2, expressed in E. coli (protein)
chain: MRDVVLFEKKVYLSECKTGNGKNYRGTMSKTKNGITCQKWSSTSPHRPRFSPATHPSEGLEENYCRNPDNDPQGPWCYTTDPEKRYDYCDVPQCAAPSFDCGKPQVEPKKCPGRVVGGCVAHPHSWPWQVSLRTRFGMHFCGGTLISPEWVLTAAHCLEKSPRPSSYKVILGAHQEVNLEPHVQEIEVSRLFLEPTRKDIALLKLSSPAVITDKVIPACLPSPNYVVADRTECFITGWGETQGTFGAGLLKEAQLPVIENKVCNRYEFLNGRVQSTELCAGHLAGGTDSCQGDSGGPLVCFEKDKYILQGVTSWGLGCARPNKPGVYVRVSRFVTWIEGVMRNN
modifications: Polypeptide having a single N-terminal kringle domain homologous to a kringle domain of a native human plasminogen
Consider B1, for which the “ε-ACA concentration at elution peak from lysine-SEPHAROSE” value in [1] (0-20 mM ε-ACA gradient, single peak) is “about 4 mM”. In [1] (column equilibrated with Tris-buffered saline, pH 7.4), the “binding to lysine-SEPHAROSE 4B” value is “bound to lysine-SEPHAROSE™”. In series [2], the dissociation constant Kd (commonly the equilibrium constant for the complex coming apart) is approximately 19 µM. Further, on fibrin (1 hour at 37° C. on fibrin clots, then tPA 2 hours, read-out: C50 of fibrin binding), the EC50 was approximately 0.3 µM. For the same molecule, the fibrin binding affinity result with fibrin (relative to full-length plasminogen) is “comparable to that of full-length plasminogen”.

B2: (TAL6003)-plasmin: two-chain active enzyme obtained by streptokinase activation of (TAL6003)-plasminogen (protein)
chain: B1 chain
modifications: Polypeptide having a single N-terminal kringle domain homologous to a kringle domain of a native human plasminogen
With B2, the Michaelis constant (Km) (in general, the substrate concentration at which the rate is half of its maximum) in [3] was found to be 141 µM. Besides, the “percent of functional active sites” value in series [4] was 67%. Moreover, the “rate of inhibition by α2-antiplasmin” value with α2-antiplasmin [5] is 1.8±0.06×10^7 M^−1 s^−1. For the same molecule, the “storage stability in the final formulation” value in [6] (pH 3.6, acidified with acetic acid-saline, low buffering capacity) is reported as “allows safe storage of active plasmins for prolonged periods of time”. For the same molecule, the “stability at physiological pH” value in series [6] (physiological pH) is “prone to auto-degradation”. Besides, the “kcat for the preparation” value in series [7] is on record as “about 725 min−1”.

B3: plasmin: native full-length human plasmin with five kringle domains and serine protease domain (protein, UniProt P00747 20-580; P00747 581-810, looked up)
Plasmin heavy chain A: EPLDDYVNTQGASLFSVTKKQLGAGSIEECAAKCEEDEEFTCRAFQYHSKEQQCVIMAENRKSSIIIRMRDVVLFEKKVYLSECKTGNGKNYRGTMSKTKNGITCQKWSSTSPHRPRFSPATHPSEGLEENYCRNPDNDPQGPWCYTTDPEKRYDYCDILECEEECMHCSGENYDGKISKTMSGLECQAWDSQSPHAHGYIPSKFPNKNLKKNYCRNPDRELRPWCFTTDPNKRWELCDIPRCTTPPPSSGPTYQCLKGTGENYRGNVAVTVSGHTCQHWSAQTPHTHNRTPENFPCKNLDENYCRNPDGKRAPWCHTTNSQVRWEYCKIPSCDSSPVSTEQLAPTAPPELTPVVQDCYHGDGQSYRGTSSTTTTGKKCQSWSSMTPHRHQKTPENYPNAGLTMNYCRNPDADKGPWCFTTDPSVRWEYCNLKKCSGTEASVVAPPPVVLLPDVETPSEEDCMFGNGKGYRGKRATTVTGTPCQDWAAQEPHRHSIFTPETNPRAGLEKNYCRNPDGDVGGPWCYTTNPRKLYDYCDVPQCAAPSFDCGKPQVEPKKCPGR
Plasmin light chain B: VVGGCVAHPHSWPWQVSLRTRFGMHFCGGTLISPEWVLTAAHCLEKSPRPSSYKVILGAHQEVNLEPHVQEIEVSRLFLEPTRKDIALLKLSSPAVITDKVIPACLPSPNYVVADRTECFITGWGETQGTFGAGLLKEAQLPVIENKVCNRYEFLNGRVQSTELCAGHLAGGTDSCQGDSGGPLVCFEKDKYILQGVTSWGLGCARPNKPGVYVRVSRFVTWIEGVMRNN
modifications: plasmin
notes: native full-length human plasmin with five kringle domains and serine protease domain
With B3, in series [3], the Michaelis-Menten constant (Km) worked out at 220 ± 9 µM and the catalytic constant (kcat) (usually the maximal rate divided by the concentration of active sites) was 13.7 ± 0.383 s⁻¹. Besides, the turnover number (kcat) in series [3] (listed as full-length plasmin) came out at 13.7 ± 0.383 s⁻¹. Moreover, in the series with α2-antiplasmin [8] (22° C. in PBS buffer, pH 7.4), the “rate of inhibition by α2-antiplasmin (literature value, table)” value is given as 2.5 ± 0.5 × 10^7 M^−1 s^−1. In addition, the “rate of inhibition by α2-antiplasmin (reported value, text)” value with α2-antiplasmin [8] (Thrombosis Res. 59: 449 (1990)) was 2.5×10^7 M^−s^−1.

B4: mini-plasmin: activated mini-plasminogen; domain composition K5-SP (kringle 5 and serine protease domain) (protein)
chain: VAPPPVVLLPDVETPSEEDCMFGNGKGYRGKRATTVTGTPCQDWAAQEPHRHSIFTPETNPRAGLEKNYCRNPDGDVGGPWCYTTNPRKLYDYCDVPQCAAPSFDCGKPQVEPKKCPGRVVGGCVAHPHSWPWQVSLRTRFGMHFCGGTLISPEWVLTAAHCLEKSPRPSSYKVILGAHQEVNLEPHVQEIEVSRLFLEPTRKDIALLKLSSPAVITDKVIPACLPSPNYVVADRTECFITGWGETQGTFGAGLLKEAQLPVIENKVCNRYEFLNGRVQSTELCAGHLAGGTDSCQGDSGGPLVCFEKDKYILQGVTSWGLGCARPNKPGVYVRVSRFVTWIEGVMRNN
Consider B4, for which, in [3], the Km was 160 ± 30 µM and the kcat came out at 12.8 ± 1.17 s⁻¹. Moreover, in the series with α2-antiplasmin [5], the “rate of inhibition by α2-antiplasmin” value was 2.4×10^5 M^−1 s^−1 and 2.4 ± 0.5 × 10^5 M^−1 s^−1.

B5: micro-plasmin: plasmin species lacking all five kringles (protein)
chain: APSFDCGKPQVEPKKCPGRVVGGCVAHPHSWPWQVSLRTRFGMHFCGGTLISPEWVLTAAHCLEKSPRPSSYKVILGAHQEVNLEPHVQEIEVSRLFLEPTRKDIALLKLSSPAVITDKVIPACLPSPNYVVADRTECFITGWGETQGTFGAGLLKEAQLPVIENKVCNRYEFLNGRVQSTELCAGHLAGGTDSCQGDSGGPLVCFEKDKYILQGVTSWGLGCARPNKPGVYVRVSRFVTWIEGVMRNN
Consider B5, for which, in series [3], the Km was 145 ± 13 µM and the kcat worked out at 13.2 ± 0.4 s⁻¹. The “rate of inhibition by α2-antiplasmin” value in the series with α2-antiplasmin [5] is given as 1.8 ± 0.2 × 10^5 M^−1 s^−1.
